The experiment deals with mouse C5aR (mouse) (UniProt P30993). Description: cell-based or functional assay.
UniProt P30993, sequence (P30993 other isoform, or with tags, fused parts or gaps): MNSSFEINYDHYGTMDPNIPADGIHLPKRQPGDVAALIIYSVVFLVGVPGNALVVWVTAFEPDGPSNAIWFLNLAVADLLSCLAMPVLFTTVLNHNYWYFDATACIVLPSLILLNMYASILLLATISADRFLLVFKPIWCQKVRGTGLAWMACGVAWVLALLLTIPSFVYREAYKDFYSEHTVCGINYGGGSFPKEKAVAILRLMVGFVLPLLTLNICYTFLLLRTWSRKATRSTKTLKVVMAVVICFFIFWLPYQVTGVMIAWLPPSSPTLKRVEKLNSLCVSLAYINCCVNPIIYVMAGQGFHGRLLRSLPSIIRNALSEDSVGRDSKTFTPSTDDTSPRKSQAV

In the case of “Anti-mouse C5aR mAb m20/70 (20/70 variable regions on mouse kappa and mouse IgG2a.1 constant regions) (from UniProt P01863 1-330) (antibody)”, the inhibition of C5a-induced CD11b up-regulation on neutrophils (live Ly6G+ cells) in mouse whole blood stimulated with recombinant mouse C5a, flow cytometry stood at 0.6 µg/mL.
